Measurements taken from the Human Domainome abundance scans (Beltran et al. 2025).
± gives the uncertainty stated by the source.

B1: Calcium-binding protein 2, residues 155 to 219; numbered along this chain, Q9NPB3 (parent)
chain: RELRDAFREFDTNGDGRISVGELRAALKALLGERLSQREVDEILQDVDLNGDGLVDFEEFVRMMS

Variants of: B1
Assay: abundance fitness (aPCA) (normalised: wild type 0, dead -1); higher = more abundant; growth selection in yeast, the domain comes from the species named
Settings: Homo sapiens

Variant	abundance fitness
RELRDAFNEFDTNGDGRISVGELRAALKALLGERLSQREVDEILQDVDLNGDGLVDFEEFVRMMS [R8N]	-0.023 ± 0.19
RELRDAFVEFDTNGDGRISVGELRAALKALLGERLSQREVDEILQDVDLNGDGLVDFEEFVRMMS [R8V]	-0.162 ± 0.054
RELRDAFSEFDTNGDGRISVGELRAALKALLGERLSQREVDEILQDVDLNGDGLVDFEEFVRMMS [R8S]	0.01 ± 0.084
RELRDAFAEFDTNGDGRISVGELRAALKALLGERLSQREVDEILQDVDLNGDGLVDFEEFVRMMS [R8A]	-0.04 ± 0.058
RELRDAFREGDTNGDGRISVGELRAALKALLGERLSQREVDEILQDVDLNGDGLVDFEEFVRMMS [F10G]	-0.417 ± 0.081
RELRDAFRECDTNGDGRISVGELRAALKALLGERLSQREVDEILQDVDLNGDGLVDFEEFVRMMS [F10C]	-0.143 ± 0.079
RELRDAFREDDTNGDGRISVGELRAALKALLGERLSQREVDEILQDVDLNGDGLVDFEEFVRMMS [F10D]	-1.13 ± 0.17
RELRDAFREIDTNGDGRISVGELRAALKALLGERLSQREVDEILQDVDLNGDGLVDFEEFVRMMS [F10I]	-0.038 ± 0.11
RELRDAFREADTNGDGRISVGELRAALKALLGERLSQREVDEILQDVDLNGDGLVDFEEFVRMMS [F10A]	0.11 ± 0.071
RELRDAFREHDTNGDGRISVGELRAALKALLGERLSQREVDEILQDVDLNGDGLVDFEEFVRMMS [F10H]	0.09 ± 0.065
RELRDAFREEDTNGDGRISVGELRAALKALLGERLSQREVDEILQDVDLNGDGLVDFEEFVRMMS [F10E]	-0.445 ± 0.059
RELRDTFREFDTNGDGRISVGELRAALKALLGERLSQREVDEILQDVDLNGDGLVDFEEFVRMMS [A6T]	0.173 ± 0.061
RELRDWFREFDTNGDGRISVGELRAALKALLGERLSQREVDEILQDVDLNGDGLVDFEEFVRMMS [A6W]	-0.111 ± 0.053
RELRDEFREFDTNGDGRISVGELRAALKALLGERLSQREVDEILQDVDLNGDGLVDFEEFVRMMS [A6E]	-0.076 ± 0.073
RELRDCFREFDTNGDGRISVGELRAALKALLGERLSQREVDEILQDVDLNGDGLVDFEEFVRMMS [A6C]	0.085 ± 0.1
RELRDSFREFDTNGDGRISVGELRAALKALLGERLSQREVDEILQDVDLNGDGLVDFEEFVRMMS [A6S]	-0.011 ± 0.087
RELRDHFREFDTNGDGRISVGELRAALKALLGERLSQREVDEILQDVDLNGDGLVDFEEFVRMMS [A6H]	-0.479 ± 0.2
RELRDLFREFDTNGDGRISVGELRAALKALLGERLSQREVDEILQDVDLNGDGLVDFEEFVRMMS [A6L]	-0.008 ± 0.048
RELRDGFREFDTNGDGRISVGELRAALKALLGERLSQREVDEILQDVDLNGDGLVDFEEFVRMMS [A6G]	-0.328 ± 0.048
RELRDRFREFDTNGDGRISVGELRAALKALLGERLSQREVDEILQDVDLNGDGLVDFEEFVRMMS [A6R]	0.089 ± 0.044
RELRDKFREFDTNGDGRISVGELRAALKALLGERLSQREVDEILQDVDLNGDGLVDFEEFVRMMS [A6K]	0.157 ± 0.088

Variant	abundance fitness
RELRDPFREFDTNGDGRISVGELRAALKALLGERLSQREVDEILQDVDLNGDGLVDFEEFVRMMS [A6P]	-0.952 ± 0.1
RELRDNFREFDTNGDGRISVGELRAALKALLGERLSQREVDEILQDVDLNGDGLVDFEEFVRMMS [A6N]	0.042 ± 0.21
RELRDDFREFDTNGDGRISVGELRAALKALLGERLSQREVDEILQDVDLNGDGLVDFEEFVRMMS [A6D]	-0.709 ± 0.2
RELRDVFREFDTNGDGRISVGELRAALKALLGERLSQREVDEILQDVDLNGDGLVDFEEFVRMMS [A6V]	0.026 ± 0.06
RELRWAFREFDTNGDGRISVGELRAALKALLGERLSQREVDEILQDVDLNGDGLVDFEEFVRMMS [D5W]	-0.491 ± 0.071
RELRTAFREFDTNGDGRISVGELRAALKALLGERLSQREVDEILQDVDLNGDGLVDFEEFVRMMS [D5T]	0.038 ± 0.058
RELRNAFREFDTNGDGRISVGELRAALKALLGERLSQREVDEILQDVDLNGDGLVDFEEFVRMMS [D5N]	-0.034 ± 0.059
RELRIAFREFDTNGDGRISVGELRAALKALLGERLSQREVDEILQDVDLNGDGLVDFEEFVRMMS [D5I]	-0.219 ± 0.08
RELRRAFREFDTNGDGRISVGELRAALKALLGERLSQREVDEILQDVDLNGDGLVDFEEFVRMMS [D5R]	-0.119 ± 0.038
RELRQAFREFDTNGDGRISVGELRAALKALLGERLSQREVDEILQDVDLNGDGLVDFEEFVRMMS [D5Q]	-0.007 ± 0.075
RELRCAFREFDTNGDGRISVGELRAALKALLGERLSQREVDEILQDVDLNGDGLVDFEEFVRMMS [D5C]	-0.178 ± 0.069
RELRLAFREFDTNGDGRISVGELRAALKALLGERLSQREVDEILQDVDLNGDGLVDFEEFVRMMS [D5L]	-0.32 ± 0.042
RELRPAFREFDTNGDGRISVGELRAALKALLGERLSQREVDEILQDVDLNGDGLVDFEEFVRMMS [D5P]	-0.665 ± 0.064
RELRYAFREFDTNGDGRISVGELRAALKALLGERLSQREVDEILQDVDLNGDGLVDFEEFVRMMS [D5Y]	-0.451 ± 0.087
RELREAFREFDTNGDGRISVGELRAALKALLGERLSQREVDEILQDVDLNGDGLVDFEEFVRMMS [D5E]	-0.054 ± 0.056
RELRSAFREFDTNGDGRISVGELRAALKALLGERLSQREVDEILQDVDLNGDGLVDFEEFVRMMS [D5S]	-0.382 ± 0.047
RELRHAFREFDTNGDGRISVGELRAALKALLGERLSQREVDEILQDVDLNGDGLVDFEEFVRMMS [D5H]	-0.159 ± 0.062
RELRVAFREFDTNGDGRISVGELRAALKALLGERLSQREVDEILQDVDLNGDGLVDFEEFVRMMS [D5V]	-0.19 ± 0.051
RELRMAFREFDTNGDGRISVGELRAALKALLGERLSQREVDEILQDVDLNGDGLVDFEEFVRMMS [D5M]	-0.171 ± 0.061
RELRFAFREFDTNGDGRISVGELRAALKALLGERLSQREVDEILQDVDLNGDGLVDFEEFVRMMS [D5F]	-0.066 ± 0.078
RELRGAFREFDTNGDGRISVGELRAALKALLGERLSQREVDEILQDVDLNGDGLVDFEEFVRMMS [D5G]	-0.318 ± 0.05
